Data: publication PMC4856987

B1: 20-bp (+290) (dsDNA)
DNA 1: AGTATTTACATAGATTCATC
DNA 2: GATGAATCTATGTAAATACT
B2: (gcca)3 (dsDNA)
DNA 1: GCCAGCCAGCCA
DNA 2: TGGCTGGCTGGC
B3: 18-bp DNA, (atac)4 plus one terminal nt each side (dsDNA)
DNA 1: CATACATACATACATACA
DNA 2: TGTATGTATGTATGTATG
B4: (auac/gtat)4 (dsDNA)
DNA 1: AUACAUACAUACAUAC
DNA 2: GTATGTATGTATGTAT
modifications: t2 of each unit to (deoxy)uridylate

Experiments:
[1] = target: T1, BmSTPR with R1 deleted (R2-R4) (Bombyx mori, UniProt Q5FBS0 122-193); test: ITC
T1 sequence: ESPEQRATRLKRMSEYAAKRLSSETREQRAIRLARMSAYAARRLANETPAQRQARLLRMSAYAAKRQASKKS

[2] = target: T2, BmSTPR (FMBP-1 STPR domain) (Bombyx mori, UniProt Q5FBS0 99-193); test: ITC
T2 sequence: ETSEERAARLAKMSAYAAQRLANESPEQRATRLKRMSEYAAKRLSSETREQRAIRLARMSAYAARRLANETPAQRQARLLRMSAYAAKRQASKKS

[3] = target: T2, BmSTPR (FMBP-1 STPR domain); test: X-ray crystal structure

Binder	Kd [2] [nM]	other results
B1	–	Kd [1]: 547 nM
B2	44600 ± 14300	–
B3	–	binding result [3]: binds
B4	183	–
